Target: T1, MazE (E. coli), MazE from Escherichia coli with His-Tag and Myc-Tag at the N-terminal end
T1 chain: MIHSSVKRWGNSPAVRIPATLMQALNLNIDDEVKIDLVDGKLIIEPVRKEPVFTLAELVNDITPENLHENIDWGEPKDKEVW

B1: MazF (E. coli), N-terminally His-Tagged MazF from Escherichia coli (protein)
chain: MVSRYVPDMGDLIWVDFDPTKGSEQAGHRPAVVLSPFMYNNKTGMCLCVPCTTQSKGYPFEVVLSGQERDGVALADQVKSIAWRARGATKKGTVAPEELQLIKAKINVLIG
- degradation of the substrate MazG30 by the ribonuclease activity of MazF (E. coli), gel electrophoresis: When MazE and MazF were added to the substrate MazG30, degradation of the substrate MazG30 was inhibited and the band at the position corresponding to a 14mer polypeptide was decreased
